Laboratory results from PMC9482650, “Quantitative fragmentomics allow affinity mapping of interactomes” (Nature Communications, 2022).

Experiments:
Experiment in all cases: holdup assay
Design in all cases: key: below the threshold = too weak to quantify, mostly under pKd 3.1 to 4
ARHGEF11, O15085 = target: T1, ARHGEF11, O15085
T1 sequence (O15085 42-136, limits assumed, looked up): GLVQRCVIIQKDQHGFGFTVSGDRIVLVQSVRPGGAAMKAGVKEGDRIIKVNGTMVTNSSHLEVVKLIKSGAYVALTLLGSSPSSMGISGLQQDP

DLG3_2, Q92796 = target: T2, DLG3_2, Q92796
T2 sequence (Q92796 221-321, limits assumed, looked up): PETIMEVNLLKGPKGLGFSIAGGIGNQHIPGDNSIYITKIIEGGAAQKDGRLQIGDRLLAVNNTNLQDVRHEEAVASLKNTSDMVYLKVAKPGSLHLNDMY

NHERF3_3, Q5T2W1 = target: T3, NHERF3_3, Q5T2W1
T3 sequence (Q5T2W1 238-333, limits assumed, looked up): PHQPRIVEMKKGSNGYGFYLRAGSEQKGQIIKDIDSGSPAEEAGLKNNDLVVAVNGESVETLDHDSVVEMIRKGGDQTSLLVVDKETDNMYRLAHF

LDB3, O75112 = target: LDB3, O75112
Sequence of LDB3, O75112 (O75112 1-94): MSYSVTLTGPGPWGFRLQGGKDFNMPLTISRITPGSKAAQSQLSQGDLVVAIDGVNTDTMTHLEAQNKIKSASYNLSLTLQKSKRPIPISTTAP

PDZRN3_1, Q9UPQ7 = target: T4, PDZRN3_1, Q9UPQ7
T4 sequence (Q9UPQ7 244-349, limits assumed, looked up): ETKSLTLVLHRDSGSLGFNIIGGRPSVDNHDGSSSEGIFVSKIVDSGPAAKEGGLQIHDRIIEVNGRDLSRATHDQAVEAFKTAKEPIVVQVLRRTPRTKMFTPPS

MAST2, Q6P0Q8 = target: MAST2, Q6P0Q8
Sequence of MAST2, Q6P0Q8 (Q6P0Q8 1099-1202): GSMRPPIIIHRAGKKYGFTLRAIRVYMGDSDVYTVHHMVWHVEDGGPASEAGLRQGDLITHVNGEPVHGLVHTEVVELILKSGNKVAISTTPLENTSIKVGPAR

ARHGAP21, Q5T5U3 = target: T5, ARHGAP21, Q5T5U3
T5 sequence (Q5T5U3 45-169, limits assumed, looked up): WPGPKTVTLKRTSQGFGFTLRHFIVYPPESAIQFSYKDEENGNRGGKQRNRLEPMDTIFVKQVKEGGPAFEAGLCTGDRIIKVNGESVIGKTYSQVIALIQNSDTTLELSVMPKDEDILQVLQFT

DLG5_1, Q8TDM6 = target: DLG5_1, Q8TDM6
Sequence of DLG5_1, Q8TDM6 (Q8TDM6 617-713): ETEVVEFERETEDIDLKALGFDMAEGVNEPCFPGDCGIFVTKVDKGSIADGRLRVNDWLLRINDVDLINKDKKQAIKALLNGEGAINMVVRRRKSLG

LNX2_2, Q8N448 = target: T6, LNX2_2, Q8N448
T6 sequence (Q8N448 334-432, limits assumed, looked up): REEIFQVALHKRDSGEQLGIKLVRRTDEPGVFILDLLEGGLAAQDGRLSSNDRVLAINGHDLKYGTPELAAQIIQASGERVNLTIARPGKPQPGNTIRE

NHERF4_4, Q86UT5 = target: NHERF4_4, Q86UT5
Sequence of NHERF4_4, Q86UT5 (Q86UT5 464-550): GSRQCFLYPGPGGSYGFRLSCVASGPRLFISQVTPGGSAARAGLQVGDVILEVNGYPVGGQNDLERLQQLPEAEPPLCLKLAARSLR

SIPA1L2, Q9P2F8 = target: T7, SIPA1L2, Q9P2F8
T7 sequence (Q9P2F8 945-1036, limits assumed, looked up): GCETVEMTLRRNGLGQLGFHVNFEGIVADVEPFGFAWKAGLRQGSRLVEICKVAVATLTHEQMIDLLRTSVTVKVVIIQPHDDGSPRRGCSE

SHANK1, Q9Y566 = target: T8, SHANK1, Q9Y566
T8 sequence (Q9Y566 658-767, limits assumed, looked up): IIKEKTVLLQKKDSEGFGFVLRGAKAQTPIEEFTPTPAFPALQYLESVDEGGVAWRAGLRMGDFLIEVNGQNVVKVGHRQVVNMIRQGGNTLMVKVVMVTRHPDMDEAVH

IL16_4, Q14005 = target: IL16_4, Q14005
Sequence of IL16_4, Q14005 (Q14005 1229-1329): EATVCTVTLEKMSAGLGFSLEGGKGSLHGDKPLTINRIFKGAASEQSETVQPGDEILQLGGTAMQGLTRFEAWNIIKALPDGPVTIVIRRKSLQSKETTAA

Inadl_8, Q8NI35 = target: Inadl_8, Q8NI35
Sequence of Inadl_8, Q8NI35 (Q8NI35 1425-1530): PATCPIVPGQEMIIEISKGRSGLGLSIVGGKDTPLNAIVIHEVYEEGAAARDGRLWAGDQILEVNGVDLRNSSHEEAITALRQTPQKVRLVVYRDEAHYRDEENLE

TJP1_2, Q07157 = target: TJP1_2, Q07157
Sequence of TJP1_2, Q07157 (Q07157 181-274): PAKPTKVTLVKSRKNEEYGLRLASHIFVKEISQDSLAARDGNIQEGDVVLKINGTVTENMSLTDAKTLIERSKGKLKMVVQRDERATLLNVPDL

NHERF2_2, Q15599 = target: NHERF2_2, Q15599
Sequence of NHERF2_2, Q15599 (Q15599 142-238): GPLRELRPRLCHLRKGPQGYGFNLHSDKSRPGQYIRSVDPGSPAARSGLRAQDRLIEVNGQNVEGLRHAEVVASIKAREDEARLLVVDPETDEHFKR

RHPN1, Q8TCX5 = target: T9, RHPN1, Q8TCX5
T9 sequence (Q8TCX5 508-602, limits assumed, looked up): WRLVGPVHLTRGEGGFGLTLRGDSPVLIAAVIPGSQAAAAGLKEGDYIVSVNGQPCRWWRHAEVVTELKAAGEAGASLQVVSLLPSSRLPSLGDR

IL16_1, Q14005 = target: IL16_1, Q14005
Sequence of IL16_1, Q14005 (Q14005 210-306): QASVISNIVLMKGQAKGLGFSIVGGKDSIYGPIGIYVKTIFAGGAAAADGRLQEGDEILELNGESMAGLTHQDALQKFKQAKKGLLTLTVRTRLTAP

PTPN3, P26045 = target: PTPN3, P26045
Sequence of PTPN3, P26045 (P26045 505-587): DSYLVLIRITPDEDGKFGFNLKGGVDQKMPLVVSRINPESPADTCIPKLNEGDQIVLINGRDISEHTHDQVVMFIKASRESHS

PICK1, Q9NRD5 = target: PICK1, Q9NRD5
Sequence of PICK1, Q9NRD5 (Q9NRD5 17-115): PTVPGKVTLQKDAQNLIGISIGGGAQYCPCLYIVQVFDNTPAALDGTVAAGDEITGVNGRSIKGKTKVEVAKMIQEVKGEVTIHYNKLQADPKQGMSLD

SNX27, Q96L92 = target: SNX27, Q96L92
GRIP2_5, Q9C0E4 = target: GRIP2_5, Q9C0E4
Sequence of GRIP2_5, Q9C0E4 (Q9C0E4 544-642): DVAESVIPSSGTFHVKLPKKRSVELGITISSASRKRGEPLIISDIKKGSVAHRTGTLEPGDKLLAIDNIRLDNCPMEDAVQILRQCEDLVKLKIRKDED

MPP6, Q9NZW5 = target: T10, MPP6, Q9NZW5
T10 sequence (Q9NZW5 125-219, limits assumed, looked up): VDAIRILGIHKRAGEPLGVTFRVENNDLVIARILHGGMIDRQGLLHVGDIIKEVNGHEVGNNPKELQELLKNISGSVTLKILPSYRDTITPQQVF

Inadl_2, Q8NI35 = target: Inadl_2, Q8NI35
Sequence of Inadl_2, Q8NI35 (Q8NI35 238-335): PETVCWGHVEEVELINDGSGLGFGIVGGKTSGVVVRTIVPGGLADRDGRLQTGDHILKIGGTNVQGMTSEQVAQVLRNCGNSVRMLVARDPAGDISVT

GORASP1, Q9BQQ3 = target: GORASP1, Q9BQQ3
Sequence of GORASP1, Q9BQQ3 (Q9BQQ3 1-208): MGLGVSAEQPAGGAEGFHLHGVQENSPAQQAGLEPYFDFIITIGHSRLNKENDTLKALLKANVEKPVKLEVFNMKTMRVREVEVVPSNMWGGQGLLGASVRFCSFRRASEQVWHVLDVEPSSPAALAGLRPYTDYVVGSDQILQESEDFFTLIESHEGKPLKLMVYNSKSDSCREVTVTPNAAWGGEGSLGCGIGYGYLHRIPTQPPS

PCLO, Q9Y6V0 = target: T11, PCLO, Q9Y6V0
T11 sequence (Q9Y6V0 4491-4600, limits assumed, looked up): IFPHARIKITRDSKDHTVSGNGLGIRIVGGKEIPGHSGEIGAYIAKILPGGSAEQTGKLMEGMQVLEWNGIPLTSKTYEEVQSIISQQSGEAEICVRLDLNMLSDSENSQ

MAST1, Q9Y2H9 = target: MAST1, Q9Y2H9
Sequence of MAST1, Q9Y2H9 (Q9Y2H9 962-1065): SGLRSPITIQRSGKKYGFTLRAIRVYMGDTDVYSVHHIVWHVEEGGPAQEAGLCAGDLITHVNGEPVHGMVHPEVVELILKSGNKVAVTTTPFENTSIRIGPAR

[1] = plain residues with an end cap or a label only (N-terminal biotin on a linker: ttds)
[2] = plain residues with an end cap or a label only (N-terminal biotin on a linker: ado-ado)
[3] = plain residues with an end cap or a label only (N-terminal biotin on a linker: gsgsgs; C-terminal amide)

Work on HRTCYLVTQL [ASIC3, Q9UHC3] yielded a pKd (ARHGEF11, O15085; [1]) of 4.83, a pKd (DLG3_2, Q92796; [1]) of 3.97 and a pKd (NHERF3_3, Q5T2W1; [1]) of 3.52. For the same binder, the pKd (LDB3, O75112; [1]) was “below the threshold”, the pKd (PDZRN3_1, Q9UPQ7; [1]) was 4.08 and the pKd (MAST2, Q6P0Q8; [1]) was 5.24. For the same binder, the pKd (ARHGAP21, Q5T5U3; [1]) was 3.47, the pKd (DLG5_1, Q8TDM6; [1]) was “below the threshold” and the pKd (LNX2_2, Q8N448; [1]) was “below the threshold”. The pKd (NHERF4_4, Q86UT5; [1]) was 3.45, the pKd (SIPA1L2, Q9P2F8; [1]) was “below the threshold” and the pKd (SHANK1, Q9Y566; [1]) was 4.91. For the same binder, the pKd (IL16_4, Q14005; [1]) was 3.21, the pKd (Inadl_8, Q8NI35; [1]) was 3.8 and the pKd (TJP1_2, Q07157; [1]) was “below the threshold”. For the same binder, the pKd (NHERF2_2, Q15599; [1]) was 4.5, the pKd (RHPN1, Q8TCX5; [1]) was 4.46 and the pKd (IL16_1, Q14005; [1]) was “below the threshold”. The pKd (PTPN3, P26045; [1]) was 4.48, the pKd (PICK1, Q9NRD5; [1]) was 3.63 and the pKd (SNX27, Q96L92; [1]) was 5.11. For the same binder, the pKd (GRIP2_5, Q9C0E4; [1]) was 4.31, the pKd (MPP6, Q9NZW5; [1]) was 3.45 and the pKd (Inadl_2, Q8NI35; [1]) was “below the threshold”. For the same binder, the pKd (GORASP1, Q9BQQ3; [1]) was 3.93, the pKd (PCLO, Q9Y6V0; [1]) was “below the threshold” and the pKd (MAST1, Q9Y2H9; [1]) was 4.

For LHLHGTGIQV [EPHA7, Q15375], the pKd (ARHGEF11, O15085; [2]) was 4.51, the pKd (DLG3_2, Q92796; [2]) was “below the threshold” and the pKd (NHERF3_3, Q5T2W1; [2]) was “below the threshold”. The pKd (LDB3, O75112; [2]) was “below the threshold”, the pKd (PDZRN3_1, Q9UPQ7; [2]) was “below the threshold” and the pKd (MAST2, Q6P0Q8; [2]) was 4.63. For the same binder, the pKd (ARHGAP21, Q5T5U3; [2]) was 3.73, the pKd (DLG5_1, Q8TDM6; [2]) was “below the threshold” and the pKd (LNX2_2, Q8N448; [2]) was 5.03. For the same binder, the pKd (NHERF4_4, Q86UT5; [2]) was 4.07, the pKd (SIPA1L2, Q9P2F8; [2]) was “below the threshold” and the pKd (SHANK1, Q9Y566; [2]) was “below the threshold”. For the same binder, the pKd (IL16_4, Q14005; [2]) was “below the threshold”, the pKd (Inadl_8, Q8NI35; [2]) was “below the threshold” and the pKd (TJP1_2, Q07157; [2]) was 4.43. The pKd (NHERF2_2, Q15599; [2]) was “below the threshold”, the pKd (RHPN1, Q8TCX5; [2]) was “below the threshold” and the pKd (IL16_1, Q14005; [2]) was “below the threshold”. For the same binder, the pKd (PTPN3, P26045; [2]) was 4.06, the pKd (PICK1, Q9NRD5; [2]) was 3.56 and the pKd (SNX27, Q96L92; [2]) was 3.53. The pKd (GRIP2_5, Q9C0E4; [2]) was 3.55, the pKd (MPP6, Q9NZW5; [2]) was 3.88 and the pKd (Inadl_2, Q8NI35; [2]) was “below the threshold”. For the same binder, the pKd (GORASP1, Q9BQQ3; [2]) was 4.23, the pKd (PCLO, Q9Y6V0; [2]) was “below the threshold” and the pKd (MAST1, Q9Y2H9; [2]) was “below the threshold”.

For GGPKEEESPV [SLC16A1, P53985], the pKd (ARHGEF11, O15085; [1]) was “below the threshold”, the pKd (DLG3_2, Q92796; [1]) was “below the threshold” and the pKd (NHERF3_3, Q5T2W1; [1]) was “below the threshold”. For the same binder, the pKd (LDB3, O75112; [1]) was “below the threshold”, the pKd (PDZRN3_1, Q9UPQ7; [1]) was “below the threshold” and the pKd (MAST2, Q6P0Q8; [1]) was 4.3. For the same binder, the pKd (ARHGAP21, Q5T5U3; [1]) was “below the threshold”, the pKd (DLG5_1, Q8TDM6; [1]) was “below the threshold” and the pKd (LNX2_2, Q8N448; [1]) was “below the threshold”. The pKd (NHERF4_4, Q86UT5; [1]) was “below the threshold”, the pKd (SIPA1L2, Q9P2F8; [1]) was “below the threshold” and the pKd (SHANK1, Q9Y566; [1]) was “below the threshold”. The pKd (IL16_4, Q14005; [1]) was “below the threshold”, the pKd (Inadl_8, Q8NI35; [1]) was “below the threshold” and the pKd (TJP1_2, Q07157; [1]) was “below the threshold”. The pKd (NHERF2_2, Q15599; [1]) was “below the threshold”, the pKd (RHPN1, Q8TCX5; [1]) was “below the threshold” and the pKd (IL16_1, Q14005; [1]) was 4.26. The pKd (PTPN3, P26045; [1]) was 4.25, the pKd (PICK1, Q9NRD5; [1]) was “below the threshold” and the pKd (SNX27, Q96L92; [1]) was 5.27. For the same binder, the pKd (GRIP2_5, Q9C0E4; [1]) was “below the threshold”, the pKd (MPP6, Q9NZW5; [1]) was “below the threshold” and the pKd (Inadl_2, Q8NI35; [1]) was “below the threshold”. For the same binder, the pKd (GORASP1, Q9BQQ3; [1]) was “below the threshold”, the pKd (PCLO, Q9Y6V0; [1]) was “below the threshold” and the pKd (MAST1, Q9Y2H9; [1]) was “below the threshold”.

ELIQDTSTSFSTTREW [ARAP3_int, Q8WWN8] was tested, and the pKd (ARHGEF11, O15085; [3]) was “below the threshold”, the pKd (DLG3_2, Q92796; [3]) was 4.16 and the pKd (NHERF3_3, Q5T2W1; [3]) was “below the threshold”. The pKd (LDB3, O75112; [3]) was “below the threshold”, the pKd (PDZRN3_1, Q9UPQ7; [3]) was “below the threshold” and the pKd (MAST2, Q6P0Q8; [3]) was “below the threshold”. The pKd (ARHGAP21, Q5T5U3; [3]) was “below the threshold”, the pKd (DLG5_1, Q8TDM6; [3]) was “below the threshold” and the pKd (LNX2_2, Q8N448; [3]) was “below the threshold”. For the same binder, the pKd (NHERF4_4, Q86UT5; [3]) was 3.55, the pKd (SIPA1L2, Q9P2F8; [3]) was “below the threshold” and the pKd (SHANK1, Q9Y566; [3]) was 4.4. For the same binder, the pKd (IL16_4, Q14005; [3]) was “below the threshold”, the pKd (Inadl_8, Q8NI35; [3]) was “below the threshold” and the pKd (TJP1_2, Q07157; [3]) was “below the threshold”. The pKd (NHERF2_2, Q15599; [3]) was “below the threshold”, the pKd (RHPN1, Q8TCX5; [3]) was “below the threshold” and the pKd (IL16_1, Q14005; [3]) was “below the threshold”. For the same binder, the pKd (PTPN3, P26045; [3]) was 3.84, the pKd (PICK1, Q9NRD5; [3]) was “below the threshold” and the pKd (SNX27, Q96L92; [3]) was “below the threshold”. For the same binder, the pKd (GRIP2_5, Q9C0E4; [3]) was “below the threshold”, the pKd (MPP6, Q9NZW5; [3]) was 3.69 and the pKd (Inadl_2, Q8NI35; [3]) was “below the threshold”. For the same binder, the pKd (GORASP1, Q9BQQ3; [3]) was “below the threshold”, the pKd (PCLO, Q9Y6V0; [3]) was “below the threshold” and the pKd (MAST1, Q9Y2H9; [3]) was 3.49.
